T1: human Sortilin (SORT1), full-length untagged, expressed on cells (human, UniProt Q99523 78-831)
T1 construct: U251 cells expressing SORT1 endogenously (down-regulation and PGRN secretion assays); also called human SORT1
T1 sequence: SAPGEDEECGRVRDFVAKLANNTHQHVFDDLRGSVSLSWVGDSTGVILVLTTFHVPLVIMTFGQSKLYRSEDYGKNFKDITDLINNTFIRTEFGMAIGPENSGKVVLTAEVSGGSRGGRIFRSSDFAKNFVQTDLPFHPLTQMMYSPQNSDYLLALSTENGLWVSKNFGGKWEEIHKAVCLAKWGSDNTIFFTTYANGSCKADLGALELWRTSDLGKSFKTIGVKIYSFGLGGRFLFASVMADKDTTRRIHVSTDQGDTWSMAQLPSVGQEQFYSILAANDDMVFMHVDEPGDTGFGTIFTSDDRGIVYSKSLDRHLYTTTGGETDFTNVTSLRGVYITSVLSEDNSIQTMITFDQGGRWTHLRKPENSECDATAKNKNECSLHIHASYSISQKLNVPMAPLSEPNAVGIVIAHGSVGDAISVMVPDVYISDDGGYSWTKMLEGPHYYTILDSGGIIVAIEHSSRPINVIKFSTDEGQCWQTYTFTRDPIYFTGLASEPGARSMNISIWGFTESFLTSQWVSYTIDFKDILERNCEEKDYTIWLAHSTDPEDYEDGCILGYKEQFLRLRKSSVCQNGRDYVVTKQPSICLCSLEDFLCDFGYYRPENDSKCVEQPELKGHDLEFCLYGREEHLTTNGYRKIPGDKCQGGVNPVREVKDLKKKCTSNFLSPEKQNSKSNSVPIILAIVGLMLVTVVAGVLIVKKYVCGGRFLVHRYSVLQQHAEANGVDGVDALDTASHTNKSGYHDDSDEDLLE


Tests used:
[1] = molecular target: T1, human Sortilin (SORT1), full-length …; assay: FACS on HEK293T cells expressing human SORT1, huIgG1
Procedure: For the binding assay, stable HEK293T cells expressing human SORT1 were harvested by trypsinization, washed in PBS, counted and plated on 96-well u-bottom plates at 1×10⁵ cells/well. The plates were spun at 1,400 rpm for 3 minutes and primary anti-SORT1 or control antibodies were added in FACS buffer (PBS+2 FBS) and incubated on ice for one hour. Cells were subsequently centrifuged as before and washed thrice with FACS buffer. Cells were then incubated with anti-human APC conjugated secondary antibody (BD Biosciences) in FACS buffer for 30 minutes on ice. Cells were again washed three times with FACS buffer and analyzed on a BD FACS Canto or an Intellicyt Flow Cytometer. Binding was measured as median fluorescent intensity (MFI) in the […] channel of the GFP positive cell population.
All antibodies were tested on the huIgG1 backbone.

[2] = molecular target: T1, human Sortilin (SORT1), full-length …; assay: cell-based or functional assay
[3] = molecular target: T1, human Sortilin (SORT1), full-length …; assay: cell-based or functional assay; remark: listed apart in the source
[4] = molecular target: T1, human Sortilin (SORT1), full-length …; assay: cell-based or functional assay; remark: listed apart in the source

Row | Kd [1] [nM] | DR EC50 (M): down-regulation of cell surface SORT1, U251 cells, FACS [2] [M] | DR at 0.6 nM antibody (IgG): percent SORT1 downregulation, U251 cells [2] [%] | DR at 1.25 nM antibody (IgG): percent SORT1 downregulation, U251 cells [3] [%] | DR at 0.63 nM antibody (IgG): percent SORT1 downregulation, U251 cells [4] [%] | Binder
1 | 7.22 | 2.73e-10 | 50.4 | – | – | S-60-1 (antibody, IgG1, V domains shown, Tested on the huIgG1 (WT) backbone) VH: QVQLQESGPGLVKPSETLSLTCAVSGYSISSVRYWGWIRQPPGKGLEWIGSIYHSGSTYYNPSLKSRVTISVDTSKNQFSLKLSSVTAADTAVYYCARQGSIKQGYYGMDVWGQGTTVTVSS VL: not shown
2 | 0.56 | – | – | 60.9 | – | S-60-15 (antibody, IgG1, V domains shown) VH: QVQLQESGPGLVKPSETLSLTCAVSGYSISSGYYWGWIRQPPGKGLEWIGTIYHSGSTYYNPSLKSRVTISVDTSKNQFSLKLSSVTAADTAVYYCARQGSIKQGYYGMDVWGQGTTVTVSS VL: not shown
3 | 0.787 | 4.47e-10 | 32.6 | – | – | S-60-7 (antibody, IgG1, V domains shown, Tested on the huIgG1 (WT) backbone; also called S-60-5; S-60-6) VH: QVQLQESGPGLVKPSETLSLTCAVSGYSISSGYYWGWIRQPPGKGLEWIGTIYHSGSTYYNPSLKSRVTISVDTSKNQFSLKLSSVTAADTAVYYCARQGSIKQGYYGMDVWGQGTTVTVSS VL: not shown
4 | 1.05 | – | – | – | 80.5 | S-60-14 (antibody, IgG1, V domains shown, Tested on the huIgG1 (WT) backbone) VH: QVQLQESGPGLVKPSETLSLTCAVSGYSISSGYYWGWIRQPPGKGLEWIGTIYHSGSTYYNPSLESRVTISVDTSKNQFSLKLSSVTAADTAVYYCARQGSIQQGYYGMDVWGQGTTVTVSS VL: not shown
5 | 0.468 | 5.76e-10 | 32 | – | – | S-60-8 (antibody, IgG1, V domains shown, Tested on the huIgG1 (WT) backbone) VH: QVQLQESGPGLVKPSETLSLTCAVSGYSISSGYYWGWIRQPPGKGLEWIGTIYHSGSTYYNPSLKSRVTISVDTSKNQFSLKLSSVTAADTAVYYCARQGSIKQGYYGMDVWGQGTTVTVSS VL: not shown
6 | 0.75 | – | – | – | 82.3 | S-60-13 (antibody, IgG1, V domains shown, Tested on the huIgG1 (WT) backbone) VH: QVQLQESGPGLVKPSETLSLTCAVSGYSISSGYYWGWIRQPPGKGLEWIGTIYHSGSTYYNPSLESRVTISVDTSKNQFSLKLSSVTAADTAVYYCARQGSIQQGYYGMDVWGQGTTVTVSS VL: not shown
7 | 0.89 | – | – | – | 87.4 | S-60-12 (antibody, IgG1, V domains shown, Tested on the huIgG1 (WT) backbone) VH: QVQLQESGPGLVKPSETLSLTCAVSGYSISSGYYWGWIRQPPGKGLEWIGTIYHSGSTYYNPSLKSQVTISVDTSKNQFSLELSSVTAADTAVYYCARQGSIQQGYYGMDVWGQGTTVTVSS VL: DIVMTQSPLSLPVTPGEPASISCRSSQSLLRSNGYNYLDWYLQKPGQPPQLLIYLGSNRVSGVPDRFSGSGSGTDFTLKISRVEAEDVGVYYCMQQQETPLTFGGGTKVEIK
8 | 0.634 | 4.18e-10 | 39.6 | – | – | S-60-4 (antibody, IgG1, V domains shown, Tested on the huIgG1 (WT) backbone) VH: QVQLQESGPGLVKPSETLSLTCAVSGYSISSGYYWGWIRQPPGKGLEWIGTIYHSGSTYYNPSLKSRVTISVDTSKNQFSLKLSSVTAADTAVYYCARQGSIKQGYYGMDVWGQGTTVTVSS VL: DIVMTQSPLSLPVTPGESASISCRSSQGLLRSNGYNYLDWYLQKPGQSPQLLIYLGSNRASGVPDRFSGSGSGTDFTLKISRVEAEDVGVYYCMQQQETPLTFGGGTKVEIK
9 | 11 | 4.2e-10 | 40.3 | – | – | S-60-2 (antibody, IgG1, V domains shown, Tested on the huIgG1 (WT) backbone) VH: QVQLQESGPGLVKPSETLSLTCAVSGYSISSVRYWGWIRQPPGKGLEWIGAIYPSGSTYYNPSLKSRVTISVDTSKNQFSLKLSSVTAADTAVYYCARQGSIKQGYYGMDVWGQGTTVTVSS VL: not shown
10 | 0.78 | – | – | 70.1 | – | S-60-16 (antibody, IgG1, V domains shown, Tested on the huIgG1 (WT) backbone) VH: QVQLQESGPGLVKPSETLSLTCAVSGYSISSGYYWGWIRQPPGKGLEWIGTIYHSGSTYYNPSLKSRVTISVDTSKNQFSLKLSSVTAADTAVYYCARQGSIKQGYYGMDVWGQGTTVTVSS VL: not shown
11 | 1.63 | – | – | 51.3 | – | S-60-18 (antibody, IgG1, V domains shown, Tested on the huIgG1 (WT) backbone) VH: QVQLQESGPGLVKPSETLSLTCAVSGYSISSGYYWGWIRQPPGKGLEWIGTIYHSGSTYYNPSLKSRVTISVDTSKNQFSLKLSSVTAADTAVYYCARQGSIKQGYYGMDVWGQGTTVTVSS VL: DIVMTQSPLSLPVTPGGPASISCRSSQSLLRSNGYNYLDWYLQKPGQSPQLLIYLGSNRASGVPDRLSGSGSGTDFTLKISRVEAEDVGVYYCMQQQETPLTFGGGTKVEIK
12 | 0.65 | – | – | – | 88.8 | S-60-11 (antibody, IgG1, V domains shown, Tested on the huIgG1 (WT) backbone) VH: QVQLQESGPGLVKPSETLSLTCAVSGYSISSGYYWGWIRQPPGKGLEWIGTIYHSGSTYYNPSLKSQVTISVDTSKNQFSLELSSVTAADTAVYYCARQGSIQQGYYGMDVWGQGTTVTVSS VL: not shown
13 | 0.8 | – | – | 55.5 | – | S-60-19 (antibody, IgG1, V domains shown, Tested on the huIgG1 (WT) backbone) VH: QVQLQESGPGLVKPSETLSLTCAVSGYSISSGYYWGWIRQPPGKGLEWIGTIYHSGSTYYNPSLKSQVTISVDTSKNQFSLELSSVTAADTAVYYCARQGSIQQGYYGMDVWGQGTTVTVSS VL: not shown
14 | 0.65 | – | – | – | 85.4 | S-60-10 (antibody, IgG1, V domains shown, Tested on the huIgG1 (WT) backbone) VH: QVQLQESGPGLVKPSETLSLTCAVSGYSISSGYYWGWIRQPPGKGLEWIGTIYHSGSTYYNPSLKSQVTISVDTSKNQFSLELSSVTAADTAVYYCARQGSIQQGYYGMDVWGQGTTVTVSS VL: not shown
